Some targets named below: GRID2IP_2, A4D2P6; GOPC, Q9HD26; Inadl_1, Q8NI35; DLG5_1, Q8TDM6; LAP2, Q96RT1; GRASP, Q7Z6J2; TJP1_2, Q07157; MAGI1_2, Q96QZ7; GRIP2_4, Q9C0E4; Inadl_2, Q8NI35; SCRIB_2, Q14160; DLG2_3, Q15700.
What all share (assay): holdup assay
Set-up in all cases: key: below the threshold = too weak to quantify, mostly under pKd 3.1 to 4
Holding throughout (conditions): plain residues with an end cap or a label only (N-terminal biotin on a linker: ado-ado)

The target of another assay is T1, DLG3_2, Q92796.
T1 sequence (Q92796 221-321, limits assumed, looked up): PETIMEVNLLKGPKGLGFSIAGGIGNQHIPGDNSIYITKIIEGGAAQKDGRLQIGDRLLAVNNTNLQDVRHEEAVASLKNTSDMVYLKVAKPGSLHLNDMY

The next assay deals with T2, ARHGEF11, O15085.
T2 sequence (O15085 42-136, limits assumed, looked up): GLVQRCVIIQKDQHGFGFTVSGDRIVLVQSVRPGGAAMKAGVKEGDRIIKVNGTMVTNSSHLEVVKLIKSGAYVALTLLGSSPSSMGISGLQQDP

In a further assay the target is T3, MPP6, Q9NZW5.
T3 sequence (Q9NZW5 125-219, limits assumed, looked up): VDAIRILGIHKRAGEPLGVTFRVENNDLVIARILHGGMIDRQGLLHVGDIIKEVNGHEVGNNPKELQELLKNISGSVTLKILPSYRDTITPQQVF

Another assay has as its target T4, APBA2_2, Q99767.
T4 sequence (Q99767 654-744, limits assumed, looked up): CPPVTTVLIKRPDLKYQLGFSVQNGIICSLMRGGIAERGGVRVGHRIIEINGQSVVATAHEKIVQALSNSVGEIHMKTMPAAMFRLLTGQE

The next assay concerns the target T5, PARD3B_1, Q8TEW8.
T5 sequence (Q8TEW8 196-299, limits assumed, looked up): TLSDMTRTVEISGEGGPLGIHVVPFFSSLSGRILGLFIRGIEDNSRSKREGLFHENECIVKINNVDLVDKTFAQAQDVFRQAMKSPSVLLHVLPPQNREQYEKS

For a further assay, the target named is T6, GRIP1_2, Q9Y3R0.
T6 sequence (Q9Y3R0 145-248, limits assumed, looked up): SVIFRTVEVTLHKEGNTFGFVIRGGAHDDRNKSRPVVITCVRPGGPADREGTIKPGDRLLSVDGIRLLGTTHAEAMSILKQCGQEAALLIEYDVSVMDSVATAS

The target in a further assay is T7, HTRA3, P83110.
T7 sequence (P83110 354-453, limits assumed, looked up): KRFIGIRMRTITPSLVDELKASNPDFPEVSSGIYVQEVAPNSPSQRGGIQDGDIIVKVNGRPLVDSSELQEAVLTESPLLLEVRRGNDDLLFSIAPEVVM

The target of a further assay is T8, APBA1_1, Q02410.
T8 sequence (Q02410 651-752, limits assumed, looked up): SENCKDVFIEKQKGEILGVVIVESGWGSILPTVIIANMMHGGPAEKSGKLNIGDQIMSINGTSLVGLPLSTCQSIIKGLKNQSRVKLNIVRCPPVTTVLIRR

Another assay addresses T9, GRIP1_3, Q9Y3R0.
T9 sequence (Q9Y3R0 247-346, limits assumed, looked up): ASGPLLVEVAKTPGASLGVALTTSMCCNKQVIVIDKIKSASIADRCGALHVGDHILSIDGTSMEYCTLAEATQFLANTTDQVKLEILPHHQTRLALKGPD

Another assay deals with T10, DLG3_3, Q92796.
T10 sequence (Q92796 374-475, limits assumed, looked up): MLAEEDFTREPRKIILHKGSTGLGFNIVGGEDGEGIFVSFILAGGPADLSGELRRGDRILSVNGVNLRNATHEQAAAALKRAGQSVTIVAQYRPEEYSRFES

The next assay deals with T11, SHANK1, Q9Y566.
T11 sequence (Q9Y566 658-767, limits assumed, looked up): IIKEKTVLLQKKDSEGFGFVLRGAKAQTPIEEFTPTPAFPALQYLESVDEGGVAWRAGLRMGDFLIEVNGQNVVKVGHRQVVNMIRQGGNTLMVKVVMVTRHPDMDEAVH

The target of the next assay is T12, MPDZ_12, O75970.
T12 sequence (O75970 1857-1958, limits assumed, looked up): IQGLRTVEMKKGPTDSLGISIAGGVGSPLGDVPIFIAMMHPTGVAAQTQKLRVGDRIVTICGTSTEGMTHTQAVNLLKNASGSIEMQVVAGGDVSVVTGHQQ

Sequence of LAP2, Q96RT1 (Q96RT1 other isoform, or with tags, fused parts or gaps): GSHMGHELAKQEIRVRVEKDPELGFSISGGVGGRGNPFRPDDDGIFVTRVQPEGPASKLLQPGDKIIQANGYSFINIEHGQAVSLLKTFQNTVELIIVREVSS
Sequence of SCRIB_2, Q14160 (Q14160 857-960): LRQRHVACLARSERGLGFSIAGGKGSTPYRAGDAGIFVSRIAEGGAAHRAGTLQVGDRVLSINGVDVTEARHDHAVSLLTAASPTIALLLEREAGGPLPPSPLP
Sequence of Inadl_2, Q8NI35 (Q8NI35 238-335): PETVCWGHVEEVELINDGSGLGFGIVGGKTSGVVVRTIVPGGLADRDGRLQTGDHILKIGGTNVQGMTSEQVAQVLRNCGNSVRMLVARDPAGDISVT
Sequence of GRID2IP_2, A4D2P6 (A4D2P6 272-370): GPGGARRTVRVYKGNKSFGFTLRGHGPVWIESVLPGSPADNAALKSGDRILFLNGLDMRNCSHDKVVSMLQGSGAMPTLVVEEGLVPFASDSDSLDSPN
Sequence of GRASP, Q7Z6J2 (Q7Z6J2 96-193): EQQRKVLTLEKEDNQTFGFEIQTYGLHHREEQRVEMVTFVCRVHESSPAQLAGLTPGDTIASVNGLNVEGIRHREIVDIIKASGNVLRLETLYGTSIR
Sequence of GRIP2_4, Q9C0E4 (Q9C0E4 446-548): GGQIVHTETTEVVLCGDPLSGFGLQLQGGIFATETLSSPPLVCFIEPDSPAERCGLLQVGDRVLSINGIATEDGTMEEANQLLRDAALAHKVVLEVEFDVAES
Sequence of MAGI1_2, Q96QZ7 (Q96QZ7 456-580): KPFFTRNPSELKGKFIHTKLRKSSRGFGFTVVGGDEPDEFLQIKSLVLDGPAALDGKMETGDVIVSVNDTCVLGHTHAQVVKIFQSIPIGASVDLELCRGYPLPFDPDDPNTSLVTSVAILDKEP
Sequence of TJP1_2, Q07157 (Q07157 181-274): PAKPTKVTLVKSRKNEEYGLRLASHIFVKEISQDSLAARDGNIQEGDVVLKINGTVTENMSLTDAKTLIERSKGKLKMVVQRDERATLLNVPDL
Sequence of DLG5_1, Q8TDM6 (Q8TDM6 617-713): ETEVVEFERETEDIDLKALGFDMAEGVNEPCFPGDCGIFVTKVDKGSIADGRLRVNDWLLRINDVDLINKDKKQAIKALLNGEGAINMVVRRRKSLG
Sequence of Inadl_1, Q8NI35 (Q8NI35 113-229): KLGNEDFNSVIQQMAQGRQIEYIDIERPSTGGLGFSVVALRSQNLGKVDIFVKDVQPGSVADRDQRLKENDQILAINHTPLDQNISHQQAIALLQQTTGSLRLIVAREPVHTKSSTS

With EYRKDNKVAA [LSM14A, Q8ND56;Q8ND56-2], the negative logarithm of the Kd (pKd) entry with GRID2IP_2, A4D2P6 was “below the threshold”; with DLG3_2, Q92796, 4.23; with ARHGEF11, O15085, “below the threshold”; with MPP6, Q9NZW5, “below the threshold”; with GOPC, Q9HD26, “below the threshold”; with Inadl_1, Q8NI35, “below the threshold”. For the same molecule, the negative-log Kd (pKd) result in the assay with DLG5_1, Q8TDM6 is “below the threshold”; in the assay with LAP2, Q96RT1, “below the threshold”; in the assay with APBA2_2, Q99767, “below the threshold”; in the assay with GRASP, Q7Z6J2, “below the threshold”; in the assay with PARD3B_1, Q8TEW8, “below the threshold”; with GRIP1_2, Q9Y3R0, “below the threshold”. For the same molecule, the negative logarithm of the Kd (pKd) entry was “below the threshold” with HTRA3, P83110; “below the threshold” in the assay with APBA1_1, Q02410; “below the threshold” with GRIP1_3, Q9Y3R0; “below the threshold” with TJP1_2, Q07157; “below the threshold” in the assay with DLG3_3, Q92796; “below the threshold” in the assay with MAGI1_2, Q96QZ7. The negative logarithm of the Kd (pKd) result was “below the threshold” with GRIP2_4, Q9C0E4; “below the threshold” with Inadl_2, Q8NI35; “below the threshold” with SCRIB_2, Q14160.
For the molecule KSTTRSSSSC [NDE1, Q9NXR1;Q9NXR1-2], the pKd entry with SHANK1, Q9Y566 is “below the threshold”; with DLG3_2, Q92796, 4.07; with ARHGEF11, O15085, “below the threshold”; with GOPC, Q9HD26 it was “below the threshold”; with Inadl_1, Q8NI35, “below the threshold”; with DLG5_1, Q8TDM6, “below the threshold”. Moreover, the pKd result with LAP2, Q96RT1 is reported as “below the threshold”; with APBA2_2, Q99767, “below the threshold”; with MPDZ_12, O75970, “below the threshold”; in the assay with GRASP, Q7Z6J2, “below the threshold”; with PARD3B_1, Q8TEW8, “below the threshold”; with GRIP1_2, Q9Y3R0, “below the threshold”. Moreover, the pKd result in the assay with APBA1_1, Q02410 is “below the threshold”; with GRIP1_3, Q9Y3R0, “below the threshold”; with TJP1_2, Q07157 it was “below the threshold”; in the assay with DLG3_3, Q92796 it was “below the threshold”; with GRIP2_4, Q9C0E4, “below the threshold”; with Inadl_2, Q8NI35, “below the threshold”. The negative-log Kd (pKd) result with SCRIB_2, Q14160 is “below the threshold”.
Turning to GDHLDRRVVL [VAC14, Q08AM6], the pKd entry was “below the threshold” in the assay with SHANK1, Q9Y566; “below the threshold” in the assay with GRID2IP_2, A4D2P6; “below the threshold” with DLG3_2, Q92796; “below the threshold” in the assay with ARHGEF11, O15085; 3.51 with MPP6, Q9NZW5; “below the threshold” in the assay with GOPC, Q9HD26. In addition, the pKd entry was “below the threshold” with Inadl_1, Q8NI35; “below the threshold” with DLG5_1, Q8TDM6; 3.93 with LAP2, Q96RT1; “below the threshold” with APBA2_2, Q99767; 3.75 with MPDZ_12, O75970; “below the threshold” with GRASP, Q7Z6J2. For the same molecule, the negative-log Kd (pKd) was 5.17 with PARD3B_1, Q8TEW8; “below the threshold” in the assay with GRIP1_2, Q9Y3R0; “below the threshold” with HTRA3, P83110; “below the threshold” with APBA1_1, Q02410; “below the threshold” with GRIP1_3, Q9Y3R0; “below the threshold” in the assay with TJP1_2, Q07157. The negative logarithm of the Kd (pKd) entry was “below the threshold” with DLG3_3, Q92796; 3.51 with MAGI1_2, Q96QZ7; “below the threshold” with GRIP2_4, Q9C0E4; “below the threshold” with DLG2_3, Q15700; “below the threshold” in the assay with Inadl_2, Q8NI35; 3.64 with SCRIB_2, Q14160.
Take LRYARPADAL [PPP1R3G, B7ZBB8]: the negative logarithm of the Kd (pKd) entry with SHANK1, Q9Y566 is “below the threshold”; with GRID2IP_2, A4D2P6, “below the threshold”; in the assay with DLG3_2, Q92796 it was “below the threshold”; with ARHGEF11, O15085, “below the threshold”; with MPP6, Q9NZW5, “below the threshold”; with GOPC, Q9HD26, “below the threshold”. For the same molecule, the negative-log Kd (pKd) result with Inadl_1, Q8NI35 is “below the threshold”; in the assay with DLG5_1, Q8TDM6, “below the threshold”; in the assay with LAP2, Q96RT1 it was “below the threshold”; in the assay with APBA2_2, Q99767 it was “below the threshold”; with MPDZ_12, O75970, “below the threshold”; with GRASP, Q7Z6J2, 3.47. Moreover, the pKd result is listed as “below the threshold” with PARD3B_1, Q8TEW8; “below the threshold” in the assay with GRIP1_2, Q9Y3R0; “below the threshold” with HTRA3, P83110; “below the threshold” with APBA1_1, Q02410; “below the threshold” with GRIP1_3, Q9Y3R0; “below the threshold” with TJP1_2, Q07157. In addition, the pKd entry in the assay with DLG3_3, Q92796 is on record as “below the threshold”; with MAGI1_2, Q96QZ7, “below the threshold”; with GRIP2_4, Q9C0E4 it was “below the threshold”; in the assay with DLG2_3, Q15700, “below the threshold”; in the assay with Inadl_2, Q8NI35 it was “below the threshold”; with SCRIB_2, Q14160, “below the threshold”.
On to SKSLERATQL [COMMD3, Q9UBI1], for which the pKd is 4.81 with SHANK1, Q9Y566; 4.69 with GRID2IP_2, A4D2P6; 4.01 in the assay with DLG3_2, Q92796; 4.57 with ARHGEF11, O15085; “below the threshold” with MPP6, Q9NZW5; 3.81 in the assay with GOPC, Q9HD26. In addition, the negative logarithm of the Kd (pKd) entry in the assay with Inadl_1, Q8NI35 is “below the threshold”; in the assay with DLG5_1, Q8TDM6 it was “below the threshold”; in the assay with LAP2, Q96RT1, “below the threshold”; in the assay with APBA2_2, Q99767 it was “below the threshold”; with MPDZ_12, O75970 it was “below the threshold”; with GRASP, Q7Z6J2, 4. Further, the pKd with PARD3B_1, Q8TEW8 was 3.95; with GRIP1_2, Q9Y3R0, 3.5; in the assay with HTRA3, P83110, “below the threshold”; with APBA1_1, Q02410 it was “below the threshold”; in the assay with GRIP1_3, Q9Y3R0, “below the threshold”; with TJP1_2, Q07157 it was 3.51. In addition, the pKd with DLG3_3, Q92796 is 3.74; with MAGI1_2, Q96QZ7, 3.85; with GRIP2_4, Q9C0E4, “below the threshold”; in the assay with DLG2_3, Q15700, 3.71; in the assay with Inadl_2, Q8NI35 it was “below the threshold”; in the assay with SCRIB_2, Q14160 it was 3.55.

The values above are taken from paper PMC9482650, “Quantitative fragmentomics allow affinity mapping of interactomes” (Nature Communications, 2022).
